Measurements as given in patent US20230151111A1 (AKESO BIOPHARMA, published 2023).

Legend:
[1] = target: T1, CD73 on cell membrane surface (MDA-MB-231, U87-MG) (human, UniProt P21589 27-549); test: cell-based or functional assay
T1 sequence (looked up): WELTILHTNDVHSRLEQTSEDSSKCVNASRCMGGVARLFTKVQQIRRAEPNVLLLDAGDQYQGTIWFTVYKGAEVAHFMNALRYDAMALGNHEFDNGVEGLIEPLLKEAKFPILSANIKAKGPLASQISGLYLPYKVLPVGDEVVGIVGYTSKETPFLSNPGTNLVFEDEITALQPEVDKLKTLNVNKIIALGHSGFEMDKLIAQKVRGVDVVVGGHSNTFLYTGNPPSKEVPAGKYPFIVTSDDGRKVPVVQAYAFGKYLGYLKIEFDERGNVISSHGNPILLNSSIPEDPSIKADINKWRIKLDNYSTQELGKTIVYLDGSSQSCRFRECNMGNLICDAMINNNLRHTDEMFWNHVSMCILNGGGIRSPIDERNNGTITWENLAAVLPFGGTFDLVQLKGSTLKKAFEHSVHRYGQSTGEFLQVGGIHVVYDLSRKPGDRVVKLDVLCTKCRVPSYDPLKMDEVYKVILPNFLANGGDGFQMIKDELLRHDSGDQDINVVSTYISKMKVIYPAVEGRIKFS

[2] = target: T1, CD73 on cell membrane surface …; test: flow cytometry, MDA-MB-231 cells; antibody 1.23 nM
Procedure: (§1) MDA-MB-231 cells in logarithmic phase were digested with conventional trypsin and transferred to a 1.5 mL centrifuge tube at 3×10⁵ cells/tube. 500 μL of PBSA was added, and the mixture was centrifuged at 5600 rpm for 5 min to remove the supernatant. […] The system was mixed gently and uniformly, and then was incubated on ice for 1 h. Then 500 μL of PBSA was added, and the mixture was centrifuged at 5600 rpm for 5 min to remove the supernatant. […] 500 μL of PBSA was added, and the mixture was centrifuged at 5600 rpm for 5 min to remove the supernatant. At last, 200 μL of PBSA was added to resuspend cell precipitates, and the mixture was transferred to a flow tube for FACSCalibur detection.

[3] = target: T1, CD73 on cell membrane surface …; test: flow cytometry, MDA-MB-231 cells; antibody 11.11 nM
Procedure: as §1

[4] = target: T1, CD73 on cell membrane surface …; test: flow cytometry, MDA-MB-231 cells; antibody 0.14 nM
Procedure: as §1

[5] = target: T1, CD73 on cell membrane surface …; test: flow cytometry, MDA-MB-231 cells; antibody 0.05 nM
Procedure: as §1

[6] = target: T1, CD73 on cell membrane surface …; test: flow cytometry, MDA-MB-231 cells; antibody 33.33 nM
Procedure: as §1

[7] = target: T1, CD73 on cell membrane surface …; test: flow cytometry, MDA-MB-231 cells; antibody 3.70 nM
Procedure: as §1

[8] = target: T1, CD73 on cell membrane surface …; test: flow cytometry, MDA-MB-231 cells; antibody 100.00 nM
Procedure: as §1

[9] = target: T1, CD73 on cell membrane surface …; test: flow cytometry, MDA-MB-231 cells
Procedure: as §1

[10] = target: T1, CD73 on cell membrane surface …; test: flow cytometry, MDA-MB-231 cells; antibody 0.41 nM
Procedure: as §1

[11] = target: T2, PD-1 on 293T-PD1 cell surface (human, UniProt Q15116 25-288); test: flow cytometry, 293T-PD1 cells; antibody 100.00 nM
T2 construct: whole, on cells
Procedure: as §1, with “500” for “MDA-MB-231 cells in logarithmic phase were digested with conventional trypsin and transferred to a 1.5 mL centrifuge tube at 3×10⁵ cells/tube. 500”

PD-1-mFc [12] = target: T3, PD-1-mFc (human, UniProt Q15116 25-170, limits assumed); test: ELISA, PD-1-mFc coated; antibody 1 ug/mL diluted 1:27
T3 construct: also called human PD-1-mFc
Procedure: (§2) A microplate was coated with PD-1-mFc at 0.5 μg/mL and incubated at 4° C. overnight. Then the microplate coated with antigens was washed once with PBST, and then blocked with a PBS solution containing 1% BSA as blocking solution at 37° C. for 2 h. After blocking, the microplate was washed 3 times with PBST. The microplate containing the test antibodies was incubated at 37° C. for 30 min, and then washed 3 times with PBST. […] After incubation, the plate was washed 4 times with PBST, TMB (Neogen, 308177) was added in the dark for chromogenesis for 5 min, and then a stop solution was added to terminate chromogenic reaction. The microplate was put into a microplate reader immediately, and the OD value of each well in the microplate was read at 450 nm. The data were analyzed and processed by SoftMax Pro 6.2.1,

[13] = target: T2, PD-1 on 293T-PD1 cell surface; test: flow cytometry, 293T-PD1 cells; antibody 0.41 nM
Procedure: as §1, with “500” for “MDA-MB-231 cells in logarithmic phase were digested with conventional trypsin and transferred to a 1.5 mL centrifuge tube at 3×10⁵ cells/tube. 500”

PD-1-mFc [14] = target: T3, PD-1-mFc; test: ELISA, PD-1-mFc coated
Procedure: as §2

[15] = target: T2, PD-1 on 293T-PD1 cell surface; test: flow cytometry, 293T-PD1 cells; antibody 1.23 nM
Procedure: as §1, with “500” for “MDA-MB-231 cells in logarithmic phase were digested with conventional trypsin and transferred to a 1.5 mL centrifuge tube at 3×10⁵ cells/tube. 500”

human NT5E-Biotin = target: T4, human NT5E-Biotin (human, UniProt P21589 27-552, limits assumed, biotin label, site not stated); test: ELISA, NT5E-biotin on streptavidin
T4 construct: Captured on streptavidin-coated plates; also called human NTSE-Biotin
T4 sequence (looked up): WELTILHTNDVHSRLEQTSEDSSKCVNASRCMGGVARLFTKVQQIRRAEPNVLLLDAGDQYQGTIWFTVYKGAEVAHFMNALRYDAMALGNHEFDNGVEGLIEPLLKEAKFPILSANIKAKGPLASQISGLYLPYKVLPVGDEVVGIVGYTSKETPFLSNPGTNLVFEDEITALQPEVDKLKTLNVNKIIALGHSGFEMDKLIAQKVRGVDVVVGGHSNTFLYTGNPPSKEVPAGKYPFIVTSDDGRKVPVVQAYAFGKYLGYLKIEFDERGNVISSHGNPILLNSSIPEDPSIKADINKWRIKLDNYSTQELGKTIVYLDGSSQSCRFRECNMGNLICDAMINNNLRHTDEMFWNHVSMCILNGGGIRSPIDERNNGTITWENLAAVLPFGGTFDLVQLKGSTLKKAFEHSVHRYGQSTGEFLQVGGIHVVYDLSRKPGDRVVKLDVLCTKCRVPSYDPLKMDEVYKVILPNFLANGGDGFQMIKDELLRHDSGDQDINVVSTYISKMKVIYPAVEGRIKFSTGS
Procedure: A microplate was coated with streptavidin at 2 μg/mL and then incubated at 4° C. overnight. After incubation, the microplate coated with streptavidin was washed once with PBST, and blocked with a PBS solution containing 1% BSA as a microplate blocking solution at 37° C. for 2 h. After blocking, the microplate was washed 3 times with PBST. Then, 0.5 μg/mL antigen human NTSE-Biotin was added and incubated at 37° C. for 30 min. Then, the plate was washed 3 times with PBST. The antibodies serially diluted with PBST solution (the dilution gradients for the antibody are shown in Table 3) were added to wells of the microplate. The microplate containing the test antibodies was incubated at 37° C. for 30 min, and then washed 3 times with PBST. […] After incubation, the plate was washed 4 times with PBST, TMB (Neogen, 308177) was added in the dark for chromogenesis for 5 min, and then a stop solution was added to terminate chromogenic reaction. The microplate was put into a microplate reader immediately, and the OD value of each well in the microplate was read at 450 nm. The data were analyzed and processed by SoftMax Pro 6.2.1.

[16] = target: T2, PD-1 on 293T-PD1 cell surface; test: flow cytometry, 293T-PD1 cells; antibody 0.05 nM
Procedure: as §1, with “500” for “MDA-MB-231 cells in logarithmic phase were digested with conventional trypsin and transferred to a 1.5 mL centrifuge tube at 3×10⁵ cells/tube. 500”

[17] = target: T2, PD-1 on 293T-PD1 cell surface; test: flow cytometry, 293T-PD1 cells; antibody 33.33 nM
Procedure: as §1, with “500” for “MDA-MB-231 cells in logarithmic phase were digested with conventional trypsin and transferred to a 1.5 mL centrifuge tube at 3×10⁵ cells/tube. 500”

human PD-1-mFc-biotin = human PD-1-mFc-biotin (human, UniProt Q15116 25-170, limits assumed, biotin label, site not stated); test: competitive ELISA, blocking of PD-1-mFc-biotin binding to coated PD-L1-mFc
Procedure: After incubation, the microplate was blocked with a PBS solution containing 1% BSA at 37° C. for 2 h. After blocking, the plate was washed three times and dried. The antibody was serially diluted to 7 concentrations in a gradient ratio of 1:3 on a dilution plate with 10 μg/mL as the starting concentration, and a blank control was set. […] Then the mixture after reaction was added to the coated microplate, and the microplate was incubated for at 37° C. for 30 min. After incubation, the plate was washed three times with PBST and dried. SA-HRP (KPL, 14-30-00) working solution was added, and the plate was incubated at 37° C. for 30 min. After incubation, the plate was washed four times and patted dry. Then TMB (Neogen, 308177) was added in the dark for chromogenesis for 5 min, and a stop solution was added to terminate chromogenic reaction. Then the microplate was put into a microplate reader immediately, and the OD value of each well in the microplate was read at 450 nm. The data were analyzed and processed by SoftMax Pro 6.2.1.

[18] = target: T2, PD-1 on 293T-PD1 cell surface; test: flow cytometry, 293T-PD1 cells; antibody 0.14 nM
Procedure: as §1, with “500” for “MDA-MB-231 cells in logarithmic phase were digested with conventional trypsin and transferred to a 1.5 mL centrifuge tube at 3×10⁵ cells/tube. 500”

[19] = target: T2, PD-1 on 293T-PD1 cell surface; test: flow cytometry, 293T-PD1 cells; antibody 3.70 nM
Procedure: as §1, with “500” for “MDA-MB-231 cells in logarithmic phase were digested with conventional trypsin and transferred to a 1.5 mL centrifuge tube at 3×10⁵ cells/tube. 500”

[20] = target: T2, PD-1 on 293T-PD1 cell surface; test: flow cytometry, 293T-PD1 cells; antibody 11.11 nM
Procedure: as §1, with “500” for “MDA-MB-231 cells in logarithmic phase were digested with conventional trypsin and transferred to a 1.5 mL centrifuge tube at 3×10⁵ cells/tube. 500”

[21] = target: T2, PD-1 on 293T-PD1 cell surface; test: flow cytometry, 293T-PD1 cells
Procedure: as §1, with “500” for “MDA-MB-231 cells in logarithmic phase were digested with conventional trypsin and transferred to a 1.5 mL centrifuge tube at 3×10⁵ cells/tube. 500”

T2 sequence (Q15116 25-288): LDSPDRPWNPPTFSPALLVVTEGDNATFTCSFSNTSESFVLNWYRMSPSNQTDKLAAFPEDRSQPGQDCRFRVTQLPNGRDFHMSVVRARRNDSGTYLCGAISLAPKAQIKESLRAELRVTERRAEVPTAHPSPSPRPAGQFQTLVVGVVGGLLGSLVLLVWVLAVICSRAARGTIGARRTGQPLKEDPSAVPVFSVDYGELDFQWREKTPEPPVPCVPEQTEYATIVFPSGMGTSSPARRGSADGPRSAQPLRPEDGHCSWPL
T3 sequence (Q15116 other isoform, or with tags, fused parts or gaps limits assumed): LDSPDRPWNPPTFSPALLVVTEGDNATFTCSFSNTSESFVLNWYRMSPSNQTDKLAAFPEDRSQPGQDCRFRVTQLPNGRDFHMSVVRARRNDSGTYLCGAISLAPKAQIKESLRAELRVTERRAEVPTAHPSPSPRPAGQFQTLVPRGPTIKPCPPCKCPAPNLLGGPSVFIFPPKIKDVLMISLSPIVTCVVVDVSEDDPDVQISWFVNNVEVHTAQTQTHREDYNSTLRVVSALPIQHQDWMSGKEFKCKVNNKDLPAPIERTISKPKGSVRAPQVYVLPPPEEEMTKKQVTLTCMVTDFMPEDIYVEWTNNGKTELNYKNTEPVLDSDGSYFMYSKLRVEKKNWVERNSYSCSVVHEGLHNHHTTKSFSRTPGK
Chain of human PD-1-mFc-biotin (Q15116 other isoform, or with tags, fused parts or gaps limits assumed): as above

B1: MEDI9447 (antibody, V domains shown)
VH: EVQLLESGGGLVQPGGSLRLSCAASGFTFSSYAYSWVRQAPGKGLEWVSAISGSGGRTYYADSVKGRFTISRDNSKNTLYLQMNSLRAEDTAVYYCARLGYGRVDEWGRGTLVTVSS
VL: QSVLTQPPSASGTPGQRVTISCSGSLSNIGRNPVNWYQQLPGTAPKLLIYLDNLRLSGVPDRFSGSKSGTSASLAISGLQSEDEADYYCATWDDSHPGWTFGGGTKLTVLG
IC50 (nM), inhibition of enzyme activity of CD73 on U87-MG cell membrane surface [1]: 0.119 nM | FACS signal [2]: 389 | FACS signal [3]: 829 | FACS signal [4]: 64.4 | FACS signal [5]: 32.6 | FACS signal [6]: 930 | FACS signal [7]: 698 | FACS signal [8]: 878 | EC50 [9]: 1.59 nM | FACS signal [10]: 158

B2: P1D7V04R (bispecific antibody, human IgG1, kappa)
heavy: not shown
light: DIQMTQSPSSMSASVGDRVTFTCRASQDINTYLSWFQQKPGKSPKTLIYRANRLVSGVPSRFSGSGSGQDYTLTISSLQPEDMATYYCLQYDEFPLTFGAGTKLELKRTVAAPSVFIFPPSDEQLKSGTASVVCLLNNFYPREAKVQWKVDNALQSGNSQESVTEQDSKDSTYSLSSTLTLSKADYEKHKVYACEVTHQGLSSPVTKSFNRGEC
notes: Morrison form IgG-scFv
FACS signal [11]: 361 | OD450 (PD-1-mFc [12]): 1.66 OD | FACS signal [13]: 113 | EC50 (PD-1-mFc [14]): 0.089 nM | FACS signal [15]: 289 | EC50 (human NT5E-Biotin): 0.439 nM | FACS signal [16]: 24.8 | FACS signal [17]: 400 | EC50 (human PD-1-mFc-biotin): 1.34 nM | FACS signal [18]: 52.4 | FACS signal [19]: 467 | FACS signal [20]: 1280 | EC50 [21]: 1.57 nM
